Data set [1] deals with T1, Hfq (Escherichia coli K12, UniProt P0A6X3 1-102). Kind of data set: smFRET; 5 nM sRNA (N13)-Hfq; rates 0.05 s-1 (49%) and 0.01 s-1; lifetime >~112 s; smFRET: 10 mM Tris-HCl pH 7.5, 50 mM NaCl, 50 mM KCl, 4 mM Trolox, 0.01% Nikkol, 0.8% glucose, RNasin, oxygen scavenger; EMSA: 1x TNK, 5% glycerol, 15 min RT, native 8% PAGE 1x TBE 4 C. The conditions noted are these: protein: recombinant; tags: none (untagged); chain copies: 6; label: tether 5' biotin, 3' Cy5; RNA 3' extension paired to DNA tether; 5' hairpin.

Data set [2] addresses T1, Hfq. Kind of data set: smFRET; sRNA (N13)-Hfq; smFRET: 10 mM Tris-HCl pH 7.5, 50 mM NaCl, 50 mM KCl, 4 mM Trolox, 0.01% Nikkol, 0.8% glucose, RNasin, oxygen scavenger; EMSA: 1x TNK, 5% glycerol, 15 min RT, native 8% PAGE 1x TBE 4 C. The note with it: protein: recombinant; tags: none (untagged); chain copies: 6; label: tether 5' biotin, 3' Cy5; RNA 3' extension paired to DNA tether; 5' hairpin.

The target in data set [3] is T1, Hfq. Kind of data set: smFRET; sRNA (N13)-Hfq; lifetime similar to (AAC)4; smFRET: 10 mM Tris-HCl pH 7.5, 50 mM NaCl, 50 mM KCl, 4 mM Trolox, 0.01% Nikkol, 0.8% glucose, RNasin, oxygen scavenger; EMSA: 1x TNK, 5% glycerol, 15 min RT, native 8% PAGE 1x TBE 4 C. The conditions noted are these: protein: recombinant; tags: none (untagged); chain copies: 6; label: tether 5' biotin, 3' Cy5; RNA 3' extension paired to DNA tether; 5' hairpin.

For data set [4], the target named is T1, Hfq. Kind of data set: smFRET; sRNA (N13)-Hfq; 57% dynamic; smFRET: 10 mM Tris-HCl pH 7.5, 50 mM NaCl, 50 mM KCl, 4 mM Trolox, 0.01% Nikkol, 0.8% glucose, RNasin, oxygen scavenger; EMSA: 1x TNK, 5% glycerol, 15 min RT, native 8% PAGE 1x TBE 4 C. The conditions noted are these: protein: recombinant; tags: none (untagged); chain copies: 6; label: tether 5' biotin, 3' Cy5; RNA 3' extension paired to DNA tether; 5' hairpin; spacer stem-loop.

The target of data set [5] is T1, Hfq. As to the kind of experiment: smFRET; sRNA (N13)-Hfq; 23% dynamic; smFRET: 10 mM Tris-HCl pH 7.5, 50 mM NaCl, 50 mM KCl, 4 mM Trolox, 0.01% Nikkol, 0.8% glucose, RNasin, oxygen scavenger; EMSA: 1x TNK, 5% glycerol, 15 min RT, native 8% PAGE 1x TBE 4 C. The note with it: protein: recombinant; tags: none (untagged); chain copies: 6; label: tether 5' biotin, 3' Cy5; RNA 3' extension paired to DNA tether; 5' hairpin.

For data set [6], the target named is T1, Hfq. Kind of data set: smFRET; sRNA (N13)-Hfq; prefers S6 site; smFRET: 10 mM Tris-HCl pH 7.5, 50 mM NaCl, 50 mM KCl, 4 mM Trolox, 0.01% Nikkol, 0.8% glucose, RNasin, oxygen scavenger; EMSA: 1x TNK, 5% glycerol, 15 min RT, native 8% PAGE 1x TBE 4 C. The conditions noted are these: protein: recombinant; tags: none (untagged); chain copies: 6; label: tether 5' biotin, 3' Cy5; RNA 3' extension paired to DNA tether; 5' hairpin.

In data set [7] the target is T1, Hfq. Kind of data set: smFRET; sRNA (N13)-Hfq; 39% dynamic; smFRET: 10 mM Tris-HCl pH 7.5, 50 mM NaCl, 50 mM KCl, 4 mM Trolox, 0.01% Nikkol, 0.8% glucose, RNasin, oxygen scavenger; EMSA: 1x TNK, 5% glycerol, 15 min RT, native 8% PAGE 1x TBE 4 C. The conditions noted are these: protein: recombinant; tags: none (untagged); chain copies: 6; label: tether 5' biotin, 3' Cy5; RNA 3' extension paired to DNA tether; 5' hairpin.

B1: (AAC)4-N0-S6 mRNA on DNA tether (mixed)
RNA: GGACUCUAUCGAGUCCAACAACAACAACGACCUCGCGCCCAGGACGACACACUUUGGACAGGACACACAGGACACAGG
DNA: CCTGTGTCCTGTGTGTCCTGTCCAAAGTGTGTCGTCC
With B1, the binding result with Hfq [1] is recorded as “binds”.

B2: (AAC)4-N35-S6 mRNA on DNA tether (mixed)
RNA: GGACUCUAUCGAGUCCAACAACAACAACUCUACCAUCACCUAAACUUUACUCUACCAUCACCAGACCUCGCGCCCAGGACGACACACUUUGGACAGGACACACAGGACACAGG
DNA: CCTGTGTCCTGTGTGTCCTGTCCAAAGTGTGTCGTCC
Take B2: in the data set with Hfq [2], the binding result is “binds”.

B3: (AAC)6-N35-S6 mRNA on DNA tether (mixed)
RNA: GGACUCUAUCGAGUCCAACAACAACAACAACAACCCCUGCAUCACCUAAACUUUACUCUACCAUCACCAGACCUCGCGCCCAGGACGACACACUUUGGACAGGACACACAGGACACAGG
DNA: CCTGTGTCCTGTGTGTCCTGTCCAAAGTGTGTCGTCC
With B3, in the data set with Hfq [3], the binding result is recorded as “binds”.

B4: (AAC)4-S6-N13-S6_SL tandem mRNA on DNA tether (mixed)
RNA: GGACUCUAUCGAGUCCAACAACAACAACAGACCUCUCUACCAUCACCGCAGCAUACUGCUGCAGACCUCGCGCCCAGGACGACACACUUUGGACAGGACACACAGGACACAGG
DNA: CCTGTGTCCTGTGTGTCCTGTCCAAAGTGTGTCGTCC
B4: the binding result with Hfq [4] is “binds”.

B5: (AAC)4-N15-S6 mRNA on DNA tether (mixed)
RNA: GGACUCUAUCGAGUCCAACAACAACAACUCUACCAUCACCUAAGACCUCGCGCCCAGGACGACACACUUUGGACAGGACACACAGGACACAGG
DNA: CCTGTGTCCTGTGTGTCCTGTCCAAAGTGTGTCGTCC
Consider B5, for which the binding result with Hfq [2] is “binds”.

B6: (AAC)4-S6-N35-S6 tandem mRNA on DNA tether (mixed)
RNA: GGACUCUAUCGAGUCCAACAACAACAACAGACCUCUCUACCAUCACCUAAACUUUACUCUACCAUCACCAGACCUCGCGCCCAGGACGACACACUUUGGACAGGACACACAGGACACAGG
DNA: CCTGTGTCCTGTGTGTCCTGTCCAAAGTGTGTCGTCC
As to B6, the binding result with Hfq [5] was “binds”.

B7: (AAC)4-S6-N15-S4 tandem mRNA on DNA tether (mixed)
RNA: GGACUCUAUCGAGUCCAACAACAACAACCGACCUCUCUACCAUCACCACUCCUCGCGCCCAGGACGACACACUUUGGACAGGACACACAGGACACAGG
DNA: CCTGTGTCCTGTGTGTCCTGTCCAAAGTGTGTCGTCC
As for B7, in the data set with Hfq [6], the binding result is on record as “binds”.

B8: (AAC)4-S6-N13-S6 tandem mRNA on DNA tether (mixed)
RNA: GGACUCUAUCGAGUCCAACAACAACAACAGACCUCUCUACCAUCACCAGACCUCGCGCCCAGGACGACACACUUUGGACAGGACACACAGGACACAGG
DNA: CCTGTGTCCTGTGTGTCCTGTCCAAAGTGTGTCGTCC
As for B8, in the data set with Hfq [7], the binding result is given as “binds”.

B9: (AAC)4-S4-N13-S6 tandem mRNA on DNA tether (mixed)
RNA: GGACUCUAUCGAGUCCAACAACAACAACACUCCUCUCUACCAUCACCCGACCUCGCGCCCAGGACGACACACUUUGGACAGGACACACAGGACACAGG
DNA: CCTGTGTCCTGTGTGTCCTGTCCAAAGTGTGTCGTCC
Consider B9, for which the binding result in the data set with Hfq [6] is listed as “binds”.

Source of the values: PMC10920880, “RNA compaction and iterative scanning for small RNA targets by the Hfq chaperone”.
